In US20220380801A1, “TRIPARTITE SYSTEMS FOR PROTEIN DIMERIZATION AND METHODS OF USE” (priority 2019, published 2022) one finds fold increase of luciferase expression, split transcription factor, rapalog data, which are given here for one substance.

The test has as its target DBD-FKBP12 (three tandem copies) (UniProt P62942). The test is described as follows: cell-based or functional assay.

DBD-FKBP12 (three tandem copies), sequence (P62942 other isoform, or with tags, fused parts or gaps limits assumed): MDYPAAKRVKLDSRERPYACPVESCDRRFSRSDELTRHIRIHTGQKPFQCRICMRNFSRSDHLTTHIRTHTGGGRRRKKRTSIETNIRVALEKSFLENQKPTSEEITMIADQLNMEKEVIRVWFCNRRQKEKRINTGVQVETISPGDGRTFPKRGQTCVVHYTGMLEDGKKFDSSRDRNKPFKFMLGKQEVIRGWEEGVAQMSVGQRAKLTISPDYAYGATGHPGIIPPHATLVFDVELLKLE

Regarding FRB-AD (from UniProt P42345 2021-2113), the fold increase of luciferase expression, split transcription factor, rapalog is 30 fold.
